Laboratory results published in patent publication US20050084491A1 (Janssen / Centocor, published 2005).

B1: CEN2319 (peptide)
peptide: DFRSWWDLSGYR
notes: synthetic linear peptide, phage-display consensus (mimotope); also called 12p1; 12pG1
B2: CEN2322 (peptide)
peptide: DYRTAADTTGLQ
notes: synthetic peptide with the D564-Q575 segment of the mature alphaV chain; also called alphaV segment; native peptide
B3: CEN2553 (peptide)
peptide: DFRSWWDLEE
notes: synthetic peptide made from the consensus formula; C-terminal glutamates added for solubility

Assays:
[1] = biological target: CNTO95; test: isothermal titration calorimetry, peptide titrated into 3 µM CNTO95, 25° C.
[2] = biological target: CNTO95; test: competitive ELISA: peptide preincubated with CNTO95, CNTO95 binding to αVβ3-coated plate detected
[3] = biological target: CNTO95; test: flow cytometry: CNTO95 (10 ug/ml) staining of A375.S2 cells after preincubation with peptide at 100 ug/ml
[4] = biological target: CNTO95; test: flow cytometry: CNTO95 (10 ug/ml) staining of A375.S2 cells after preincubation with peptide at 200 ug/ml
[5] = biological target: CNTO95; test: isothermal titration calorimetry, peptide titrated into 3 µM CNTO95, 25° C. (commented: No binding)

| Binder | Kd [1] [µM] | Molar ratio (Peptide/CNTO95) [1] | ΔH [1] [kcal/mol] | EC50 [2] [µM] | Mean Channel Fluorescence [3] | Mean Channel Fluorescence [4] | ΔH [5] [kcal/mol] |
| --- | --- | --- | --- | --- | --- | --- | --- |
| B1 | 4.2 | 2.2 | -12 | 5.8 | 12.3 | 11.6 | – |
| B2 | – | – | – | – | 90.5 | 92.4 | -0.325 |
| B3 | – | – | – | – | 12.9 | 9.41 | – |
